The results in this text go back to US20260176373A1 (BRIGHT BIOLOGICS, published 2026).

Substitutions are numbered along the chain they refer to. Numbers in names are those of the source.

Assay [1] addresses T1, human HER2 (human epidermal growth factor receptor 2) (human, UniProt P04626 23-1255). Description: cell-based or functional assay.
In assay [2] the target is T1, human HER2 (human epidermal growth …). Description: flow cytometry whole cell binding, SKBR3 cells.
The target is the same in assay [3]. Description: flow cytometry whole cell binding, HCC202 cells.
Assay [4] shares this target. In words: flow cytometry whole cell binding, CHO-h-HER2 stable cells.
For assay [5], the target named is T2, human TROP2 (Trophoblast cell-surface antigen 2) (human, UniProt P09758 27-323).
T2 construct: whole, on cells; also called TACSTD2; h-TROP2
T2 sequence (looked up): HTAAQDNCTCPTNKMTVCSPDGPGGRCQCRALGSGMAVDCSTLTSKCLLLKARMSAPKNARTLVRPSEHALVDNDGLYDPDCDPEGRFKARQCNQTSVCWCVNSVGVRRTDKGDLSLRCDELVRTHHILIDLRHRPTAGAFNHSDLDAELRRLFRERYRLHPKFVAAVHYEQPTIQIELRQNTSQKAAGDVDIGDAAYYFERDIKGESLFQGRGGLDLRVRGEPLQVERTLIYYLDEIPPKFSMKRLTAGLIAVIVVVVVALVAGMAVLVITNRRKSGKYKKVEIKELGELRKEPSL
Description: flow cytometry whole cell binding, CHO-h-TROP2 stable cells. The protocol:
(§1) Binding of bivalent anti-TROP2 VHH-Fc clones to human TROP2 in human TROP2 stably transfected CHO cells (CHO-h-TROP2 stable cells) were determined by flow cytometry whole cell binding (WCB) assays. Briefly, antibodies were incubated at different concentrations with CHO-h-TROP2 stable cells (0.2×10⁶/ml) in 96-well plates (100 μl/well) in FACS buffer for 30 min. After washing, Alexa Fluor 488 conjugated anti-human IgG Fc secondary antibody was added, and incubated for 30 min. After washing, MFI was measured using CytoFlex by gating live cell population with FITC channel. EC50 of binding was calculated using GraphPad Prism7.0.
The same strategy was carried out for the humanization of Alpaca clone 4C6. Ten humanized VHH-Fc variants were made for 4C6 with minor difference in Framework 2 and Framework 3. Whole cell binding to CHO-h-TROP2 stable cells was performed to compare the binding affinities of these humanized VHH-Fc variants to the parental Alpaca clone 4C6.

For assay [6], the target named is T3, human TROP2 (Trophoblast cell-surface antigen 2) (human, UniProt P09758 27-323).
T3 chain: T2 sequence (looked up)
In words: flow cytometry whole cell binding, SKBR3.

Assay [7] concerns the target T2, human TROP2 (Trophoblast cell-surface …). In words: flow cytometry whole cell binding, h-TROP2 stably transfected CHO cells. The procedure:
as §1

Assay [8] has as its target human TROP2 (Trophoblast cell-surface antigen 2) (human) (UniProt P09758). Description: cell-based or functional assay.
Assay [9] shares this target. Description: flow cytometry, OE-19 cells.
Assay [10] has the same target. In words: flow cytometry, SKOV3 cells.
Assay [11] shares this target. In words: flow cytometry whole cell binding, SKBR3 cells.
Assay [12] has the same target. Description: flow cytometry whole cell binding, HCC202 cells.
For assay [13] the target is unchanged. Description: flow cytometry, AU-565 cells, Immu-132 at 100 nM.
Assay [14] shares this target. Description: flow cytometry, SKBR3 cells, antibody at 100 nM.
For assay [15] the target is unchanged. In words: flow cytometry whole cell binding, NCI-H441 cells.
For assay [16] the target is unchanged. Description: flow cytometry, HCC202 cells, antibody at 100 nM.
Assay [17] has the same target. Description: flow cytometry, NCI-H441 cells, Immu-132 at 100 nM.
The target is the same in assay [18]. Description: flow cytometry whole cell binding, CHO-h-TROP2 stable cells.
The target is the same in assay [19]. Described as above. This is another data set of the same source.
The target is the same in assay [20]. Description: flow cytometry whole cell binding, Colo205 cells (endogenous TROP2).
The target is the same in assay [21]. Description: flow cytometry whole cell binding, NCI-H1975 cells (endogenous TROP2).
For assay [22] the target is unchanged. In words: flow cytometry whole cell binding, h-TROP2 stably transfected CHO cells.
Assay [23] deals with T2, human TROP2 (Trophoblast cell-surface …). Description: flow cytometry whole cell binding, CHO-h-TROP2 stable cells. The procedure: as §1
Humanization of Alpaca clone 1H11 was carried out using the same strategy. Ten humanized VHH-Fc variants were made with minor difference in Framework 2. The binding activity of humanized variants to human TROP2 was examined using whole cell binding assays.
This is another data set of the same source.

The target is the same in assay [24]. Description: flow cytometry whole cell binding, Colo205 cells (endogenous TROP2).
Assay [25] has the same target. In words: flow cytometry whole cell binding, NCI-H1975 cells (endogenous TROP2).
Assay [26] has the same target. In words: flow cytometry whole cell binding, CHO-h-TROP2 stable cells. This is another data set of the same source.

B1: 11D5_Fc (antibody, V domains shown)
VH: QVQLVESGGGVVQPGRSLRLSCAASGSTFSSLAMHWVRQAPGKERELVAAISYSGGYTYYADSVKGRFTISRDNSKNTLYLQMNSLRAEDTAVYYCAASSIFIGAYDYWGQGTLVTVSS
notes: monospecific bivalent VHH-Fc with C220S mutation in the hinge region; also called monospecific anti-HER2 (11D5)
Turning to B1, in assay [1], the “IC50, nM, Killing of HCC202 cells by 2nd Ab-MMAE” value came out at 0.18 nM. Besides, the “IC50, nM, Killing of SKBR3 cells by 2nd Ab-MMAE” value in assay [1] is 0.134 nM. Besides, the results for the EC50 in assay [2], in assay [3] and in [4] were 2.59 nM, 3.25 nM and 0.684 nM, respectively.

B2: 4C6-hv10 (humanized VHH-Fc variant of 4C6) (antibody, V domains shown)
VH: EVQLVESGGGLVQPGGSLRLSCAASGHPFAMYAMGWFRQAPGKEREFVAAIAGNGGSTSYADSVKGRFTISRDNSKNTLYLQMNSLRAEDTAVYYCAAAGGTFYSGTTVATRSSHYDYWGQGTQVTVSS
Turning to B2, a half-maximal response in assay [5] (EC50) required 1.46 nM.

B3: 4C6-hv4 (humanized VHH-Fc variant of 4C6) (antibody, V domains shown)
VH: B2 VH with A49S
Consider B3, for which the EC50 in [5] was 2.6 nM.

B4: 4C6-hv9 (humanized VHH-Fc variant of 4C6) (antibody, V domains shown)
VH: B2 VH with A49S, S59Y
As to B4, in assay [5], the midpoint of the response, the EC50, lay at 2.32 nM.

B5: anti-TROP2 VHH-Fc clone Alpaca 4C6 (antibody, human IgG1, V domains shown)
VH: B2 VH with E1Q, L4V, P14A, L18Q, A24V, N74Y, S75A, L79N, R87E, A88P
notes: domain: hinge region and constant domains (CH2 and CH3); bivalent VHH-Fc, human IgG1 Fc; also called 4C6 Alpaca
With B5, the EC50 in [5] came out at 0.97 nM; in assay [6], 1.58 nM; in assay [7], 1.37 nM.

B6: Immu-132 (antibody, INN chains, looked up, V domains shown)
VH: QVQLQQSGSELKKPGASVKVSCKASGYTFTNYGMNWVKQAPGQGLKWMGWINTYTGEPTYTDDFKGRFAFSLDTSVSTAYLQISSLKADDTAVYFCARGGFGSSYWYFDVWGQGSLVTVSS
VL: DIQLTQSPSSLSASVGDRVSITCKASQDVSIAVAWYQQKPGKAPKLLIYSASYRYTGVPDRFSGSGSGTDFTLTISSLQPEDFAVYYCQQHYITPLTFGAGTKVEIKR
modifications: unconjugated
Molecule B6 gave an IC50, nM, Killing of HCC202 cells by 2nd Ab-MMAE in [8] of 0.19 nM. In [8], this molecule had an IC50, nM, Killing of NCI-H441 cells by 2nd Ab-MMAE of 0.13 nM. In assay [8], this molecule came in with an IC50, nM, Killing of SKBR3 cells by 2nd Ab-MMAE of 0.452 nM. Moreover, the MFI in assay [9] was determined as 30000 MFI; in [10], 50000 MFI; in assay [13] it was 90000 MFI; in assay [14], 90000 MFI; in assay [16], 200000 MFI; in assay [17], 200000 MFI. The EC50 in [11] amounted to 128 nM; in assay [12], 4.02 nM; in assay [15] it was 1.74 nM; in assay [18], 0.84 nM; in assay [19], 1.16 nM; in assay [20], 1.15 nM. Moreover, the EC50 in assay [21] stood at 3.61 nM; in [22], 2.2 nM.

B7: Immu-132_MMAE (protein, INN chains, looked up)
VH: B6 VH
VL: DIQLTQSPSSLSASVGDRVSITCKASQDVSIAVAWYQQKPGKAPKLLIYSASYRYTGVPDRFSGSGSGTDFTLTISSLQPEDFAVYYCQQHYITPLTFGAGTKVEIK
modifications: vc-MMAE payload conjugate
In assay [8], B7 displayed an IC50 (nM) in ADC mediated killing, NCI-H441 cells, Immu-132 MMAE DAR3.5 of 0.047 nM; an IC50 (nM) in ADC mediated killing, NCI-H441 cells, Immu-132 MMAE DAR4.0 of 0.04 nM; an IC50 (nM) in ADC mediated killing, NCI-H441 cells, Immu-132 MMAE DAR4.4 of 0.033 nM; an IC50, nM, in killing assay, A431 cells of 0.611 nM. Also, in assay [8], the IC50, nM, in killing assay, AU-565 cells turned out to be 0.0489 nM; the IC50, nM, in killing assay, Colo205 cells amounted to 0.45 nM; the IC50, nM, in killing assay, N87 cells was 0.092 nM; the IC50, nM, in killing assay, NCI-H441 cells stood at 0.054 nM. In assay [8], this molecule came in with an IC50, nM, in killing assay, NCI-H1975 cells of 0.25 nM; an IC50, nM, in killing assay, OE-19 cells of 1.1 nM; an IC50, nM, in killing assay, SK-OV3 cells of 1.44 nM; an IC50, nM, in killing assay, SKBR3 cells of 0.0362 nM. The IC50, nM, in killing assay, T-47D cells in [8] was 0.21 nM.

B8: anti-TROP2 VHH-Fc clone Alpaca 1H11 (antibody, human IgG1, V domains shown)
VH: LVQLVESGGGLVQAGDSLRLSCTASGGTFSRYIIGWFRQAPGKEREFVTTISGSGGSTYYADSVKGRFTISRDNAKNTVFLQMNSLKPEDTAVYYCASTFYSTTYVAQRDARDYAYWGQGTQVTVSS
notes: domain: hinge region and constant domains (CH2 and CH3); bivalent VHH-Fc, human IgG1 Fc
Take B8: the EC50 came out at 1.57 nM in assay [23]; 1.53 nM in assay [24]; 2.14 nM in assay [6]; 2.59 nM in assay [25]; 1.84 nM in assay [7].

B9: 1H11-hv8 (humanized VHH-Fc variant of 1H11, Example 5) (antibody, V domains shown)
VH: EVQLVESGGGLVQPGGSLRLSCAASGGTFSRYIMGWFRQAPGKEREFVSTISGSGGSTYYADSVKGRFTISRDNSKNTLYLQMNSLRAEDTAVYYCASTFYSTTYVAQRDARDYAYWGQGTQVTVSS
notes: hinge not specified
Regarding B9, the results for the concentration for a half-maximal effect (EC50) in assay [23], in assay [24] and in assay [25] were 1.97 nM, 1.29 nM and 2.54 nM, respectively.

B10: 1H11-hv7 (humanized VHH-Fc variant of 1H11) (antibody, V domains shown)
VH: B9 VH with M34I
With B10, the EC50 in assay [23] stood at 2.59 nM; in assay [24], 1.19 nM; in assay [25], 2.42 nM.

B11: 1H11-hv9 (humanized VHH-Fc variant of 1H11) (antibody, V domains shown)
VH: B9 VH with G35S
B11: the EC50 in [23] is 2.73 nM; in assay [24] it was 1.29 nM; in assay [25] it was 3.04 nM.

B12: 1H11-hv6 (humanized VHH-Fc variant of 1H11) (antibody, V domains shown)
VH: B9 VH with M34I, S49T
In the case of B12, the results for the EC50 in assay [23], in assay [24] and in assay [25] were 2.18 nM, 1.22 nM and 2.7 nM, respectively.

B13: 1H11-hv10 (humanized VHH-Fc variant of 1H11, Example 5) (antibody, V domains shown)
VH: B9 VH with G35S, T50A
notes: hinge not specified
Turning to B13, the EC50 in [23] came to 2.29 nM; in [24], 1.71 nM; in assay [25], 3.12 nM.

B14: 1H11-hv10_Fc (antibody, V domains shown)
VH: B9 VH with G35S, T50A
notes: monospecific bivalent VHH-Fc with C220S mutation in the hinge region; also called monospecific anti-TROP2 (1H11-hv10)
In turn, B14 displayed an EC50 in assay [26] of 2.38 nM.
